Values belong to the binder of their own block, whether it stands above or below them.
Columns and labels:
Assay in all cases: holdup assay
Set-up in all cases: key: below the threshold = too weak to quantify, mostly under pKd 3.1 to 4
LNX1_2, Q8TBB1 = biological target: LNX1_2, Q8TBB1
FRMPD2_3, Q68DX3 = biological target: FRMPD2_3, Q68DX3
TJP3_3, O95049 = biological target: T1, TJP3_3, O95049
T1 sequence (O95049 375-456, limits assumed, looked up): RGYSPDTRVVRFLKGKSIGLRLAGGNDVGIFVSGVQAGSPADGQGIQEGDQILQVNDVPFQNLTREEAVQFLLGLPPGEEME

TJP1_2, Q07157 = biological target: TJP1_2, Q07157
GRIP2_4, Q9C0E4 = biological target: GRIP2_4, Q9C0E4
DLG1_2, Q12959 = biological target: DLG1_2, Q12959
NHERF2_2, Q15599 = biological target: NHERF2_2, Q15599
GOPC, Q9HD26 = biological target: GOPC, Q9HD26
GRIP2_6, Q9C0E4 = biological target: GRIP2_6, Q9C0E4
APBA3_1, O96018 = biological target: T2, APBA3_1, O96018
T2 sequence (O96018 389-490, limits assumed, looked up): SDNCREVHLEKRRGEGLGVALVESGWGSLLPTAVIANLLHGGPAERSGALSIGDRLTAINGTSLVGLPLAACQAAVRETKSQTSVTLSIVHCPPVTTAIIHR

NOS1, P29475 = biological target: NOS1, P29475
MAGI2_6, Q86UL8 = biological target: MAGI2_6, Q86UL8
PARD3_3, Q8TEW0 = biological target: PARD3_3, Q8TEW0
LIN7A, O14910 = biological target: T3, LIN7A, O14910
T3 sequence (O14910 103-200, limits assumed, looked up): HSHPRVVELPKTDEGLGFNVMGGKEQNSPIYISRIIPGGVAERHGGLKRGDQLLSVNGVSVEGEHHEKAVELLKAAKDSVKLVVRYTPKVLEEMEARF

DLG3_3, Q92796 = biological target: T4, DLG3_3, Q92796
T4 sequence (Q92796 374-475, limits assumed, looked up): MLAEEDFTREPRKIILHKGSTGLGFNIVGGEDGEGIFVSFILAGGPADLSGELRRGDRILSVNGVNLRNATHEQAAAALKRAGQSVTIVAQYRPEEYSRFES

Inadl_1, Q8NI35 = biological target: Inadl_1, Q8NI35
PDZRN4_1, Q6ZMN7 = biological target: PDZRN4_1, Q6ZMN7
PDZD2_2, O15018 = biological target: T5, PDZD2_2, O15018
T5 sequence (O15018 329-429, limits assumed, looked up): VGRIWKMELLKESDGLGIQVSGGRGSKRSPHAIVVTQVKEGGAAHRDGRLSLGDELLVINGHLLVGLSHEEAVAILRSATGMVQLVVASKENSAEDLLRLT

DFNB31_3, Q9P202 = biological target: T6, DFNB31_3, Q9P202
T6 sequence (Q9P202 811-907, limits assumed, looked up): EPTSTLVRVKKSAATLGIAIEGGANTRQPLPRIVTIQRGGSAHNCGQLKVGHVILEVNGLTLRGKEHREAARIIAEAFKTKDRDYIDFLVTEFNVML

MAST1, Q9Y2H9 = biological target: MAST1, Q9Y2H9
DLG1_3, Q12959 = biological target: DLG1_3, Q12959
LAP2, Q96RT1 = biological target: LAP2, Q96RT1
IL16_1, Q14005 = biological target: IL16_1, Q14005
GORASP2, Q9H8Y8 = biological target: GORASP2, Q9H8Y8
DLG1_1, Q12959 = biological target: DLG1_1, Q12959
SNTG1, Q9NSN8 = biological target: T7, SNTG1, Q9NSN8
T7 sequence (Q9NSN8 52-150, limits assumed, looked up): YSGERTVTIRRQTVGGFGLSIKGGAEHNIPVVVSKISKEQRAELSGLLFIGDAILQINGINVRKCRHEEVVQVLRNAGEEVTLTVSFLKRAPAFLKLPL

GRIP1_7, Q9Y3R0 = biological target: T8, GRIP1_7, Q9Y3R0
T8 sequence (Q9Y3R0 999-1096, limits assumed, looked up): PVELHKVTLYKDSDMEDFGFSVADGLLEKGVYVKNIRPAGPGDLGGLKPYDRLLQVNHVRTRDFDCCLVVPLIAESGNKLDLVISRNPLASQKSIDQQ

Inadl_4, Q8NI35 = biological target: Inadl_4, Q8NI35
MPDZ_12, O75970 = biological target: T9, MPDZ_12, O75970
T9 sequence (O75970 1857-1958, limits assumed, looked up): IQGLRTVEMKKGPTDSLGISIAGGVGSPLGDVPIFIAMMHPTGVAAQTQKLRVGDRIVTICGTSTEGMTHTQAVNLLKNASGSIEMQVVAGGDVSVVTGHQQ

[1] = plain residues with an end cap or a label only (N-terminal biotin on a linker: ttds)
[2] = plain residues with an end cap or a label only (N-terminal biotin on a linker: ahx)

Chain of MAGI2_6, Q86UL8 (Q86UL8 1141-1229): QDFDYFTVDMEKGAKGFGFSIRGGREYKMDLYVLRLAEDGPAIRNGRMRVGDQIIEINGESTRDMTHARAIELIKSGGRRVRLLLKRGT
Chain of TJP1_2, Q07157 (Q07157 181-274): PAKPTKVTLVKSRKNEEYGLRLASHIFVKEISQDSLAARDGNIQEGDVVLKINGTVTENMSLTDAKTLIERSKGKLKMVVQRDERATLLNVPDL
Chain of Inadl_1, Q8NI35 (Q8NI35 113-229): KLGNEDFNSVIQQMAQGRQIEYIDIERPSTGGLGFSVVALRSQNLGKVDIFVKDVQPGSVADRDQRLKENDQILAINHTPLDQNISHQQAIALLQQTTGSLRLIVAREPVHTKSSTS
Chain of IL16_1, Q14005 (Q14005 210-306): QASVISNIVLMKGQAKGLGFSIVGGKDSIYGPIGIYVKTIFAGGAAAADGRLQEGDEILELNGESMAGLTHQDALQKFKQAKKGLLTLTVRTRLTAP
Chain of PARD3_3, Q8TEW0 (Q8TEW0 582-685): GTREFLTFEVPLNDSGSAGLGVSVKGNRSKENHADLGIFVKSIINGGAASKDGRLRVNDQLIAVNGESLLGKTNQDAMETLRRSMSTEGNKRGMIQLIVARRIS
Chain of NHERF2_2, Q15599 (Q15599 142-238): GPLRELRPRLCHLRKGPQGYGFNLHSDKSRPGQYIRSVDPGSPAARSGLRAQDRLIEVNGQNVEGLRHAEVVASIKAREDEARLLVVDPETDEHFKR
Chain of GRIP2_6, Q9C0E4 (Q9C0E4 648-740): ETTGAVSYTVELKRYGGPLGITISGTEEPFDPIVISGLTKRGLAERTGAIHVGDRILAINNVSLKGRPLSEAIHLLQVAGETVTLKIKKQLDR
Chain of LNX1_2, Q8TBB1 (Q8TBB1 371-470): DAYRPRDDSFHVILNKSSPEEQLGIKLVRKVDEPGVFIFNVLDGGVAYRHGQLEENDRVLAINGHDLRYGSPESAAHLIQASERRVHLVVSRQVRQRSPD
Chain of FRMPD2_3, Q68DX3 (Q68DX3 1073-1166): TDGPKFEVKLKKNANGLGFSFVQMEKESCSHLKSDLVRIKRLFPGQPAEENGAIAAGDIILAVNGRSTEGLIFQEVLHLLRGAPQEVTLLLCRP
Chain of Inadl_4, Q8NI35 (Q8NI35 547-651): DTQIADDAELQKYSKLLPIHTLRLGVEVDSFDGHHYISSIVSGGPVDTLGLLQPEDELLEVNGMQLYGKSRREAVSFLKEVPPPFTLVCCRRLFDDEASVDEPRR
Chain of NOS1, P29475 (P29475 9-101): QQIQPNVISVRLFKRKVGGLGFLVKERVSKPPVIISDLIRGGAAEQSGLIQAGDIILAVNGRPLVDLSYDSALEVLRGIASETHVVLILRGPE
Chain of MAST1, Q9Y2H9 (Q9Y2H9 962-1065): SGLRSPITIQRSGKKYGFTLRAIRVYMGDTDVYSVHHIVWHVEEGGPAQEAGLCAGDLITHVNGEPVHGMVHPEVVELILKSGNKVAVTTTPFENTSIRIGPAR
Chain of GRIP2_4, Q9C0E4 (Q9C0E4 446-548): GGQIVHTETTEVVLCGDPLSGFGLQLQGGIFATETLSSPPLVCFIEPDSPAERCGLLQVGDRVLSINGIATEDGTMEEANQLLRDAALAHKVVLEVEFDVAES
Chain of PDZRN4_1, Q6ZMN7 (Q6ZMN7 213-318): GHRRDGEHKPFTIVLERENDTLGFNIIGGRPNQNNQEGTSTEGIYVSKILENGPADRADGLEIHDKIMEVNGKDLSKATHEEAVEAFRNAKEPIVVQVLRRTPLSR
Chain of LAP2, Q96RT1 (Q96RT1 other isoform, or with tags, fused parts or gaps): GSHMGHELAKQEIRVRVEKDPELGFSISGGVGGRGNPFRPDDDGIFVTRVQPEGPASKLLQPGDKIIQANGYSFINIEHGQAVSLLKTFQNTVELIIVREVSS

pKd (LNX1_2, Q8TBB1; [1]): below the threshold
pKd (FRMPD2_3, Q68DX3; [1]): below the threshold
pKd (TJP3_3, O95049; [1]): below the threshold
pKd (TJP1_2, Q07157; [1]): below the threshold
pKd (GRIP2_4, Q9C0E4; [1]): below the threshold
pKd (DLG1_2, Q12959; [1]): below the threshold
pKd (NHERF2_2, Q15599; [1]): 5.24
pKd (GOPC, Q9HD26; [1]): 3.86
pKd (GRIP2_6, Q9C0E4; [1]): below the threshold
pKd (APBA3_1, O96018; [1]): below the threshold
pKd (NOS1, P29475; [1]): 3.95
pKd (MAGI2_6, Q86UL8; [1]): 3.79
pKd (PARD3_3, Q8TEW0; [1]): below the threshold
pKd (LIN7A, O14910; [1]): below the threshold
pKd (DLG3_3, Q92796; [1]): below the threshold
pKd (Inadl_1, Q8NI35; [1]): below the threshold
pKd (PDZRN4_1, Q6ZMN7; [1]): 4.26
pKd (PDZD2_2, O15018; [1]): 4.11
pKd (DFNB31_3, Q9P202; [1]): below the threshold
pKd (MAST1, Q9Y2H9; [1]): 4.91
pKd (DLG1_3, Q12959; [1]): below the threshold
pKd (LAP2, Q96RT1; [1]): below the threshold
pKd (IL16_1, Q14005; [1]): below the threshold
pKd (GORASP2, Q9H8Y8; [1]): below the threshold
pKd (DLG1_1, Q12959; [1]): below the threshold
pKd (SNTG1, Q9NSN8; [1]): below the threshold
pKd (GRIP1_7, Q9Y3R0; [1]): 3.51
pKd (Inadl_4, Q8NI35; [1]): below the threshold
pKd (MPDZ_12, O75970; [1]): below the threshold
Binder: IDNDTESTAL [ARHGAP17, Q68EM7]

pKd (LNX1_2, Q8TBB1; [2]): below the threshold
pKd (FRMPD2_3, Q68DX3; [2]): below the threshold
pKd (TJP3_3, O95049; [2]): below the threshold
pKd (TJP1_2, Q07157; [2]): below the threshold
pKd (GRIP2_4, Q9C0E4; [2]): below the threshold
pKd (DLG1_2, Q12959; [2]): below the threshold
pKd (NHERF2_2, Q15599; [2]): below the threshold
pKd (GOPC, Q9HD26; [2]): below the threshold
pKd (GRIP2_6, Q9C0E4; [2]): below the threshold
pKd (APBA3_1, O96018; [2]): below the threshold
pKd (NOS1, P29475; [2]): below the threshold
pKd (MAGI2_6, Q86UL8; [2]): below the threshold
pKd (PARD3_3, Q8TEW0; [2]): below the threshold
pKd (LIN7A, O14910; [2]): below the threshold
pKd (DLG3_3, Q92796; [2]): below the threshold
pKd (Inadl_1, Q8NI35; [2]): below the threshold
pKd (PDZRN4_1, Q6ZMN7; [2]): below the threshold
pKd (PDZD2_2, O15018; [2]): below the threshold
pKd (DFNB31_3, Q9P202; [2]): below the threshold
pKd (MAST1, Q9Y2H9; [2]): below the threshold
pKd (DLG1_3, Q12959; [2]): below the threshold
pKd (LAP2, Q96RT1; [2]): below the threshold
pKd (IL16_1, Q14005; [2]): below the threshold
pKd (GORASP2, Q9H8Y8; [2]): below the threshold
pKd (DLG1_1, Q12959; [2]): below the threshold
pKd (SNTG1, Q9NSN8; [2]): below the threshold
pKd (GRIP1_7, Q9Y3R0; [2]): below the threshold
pKd (Inadl_4, Q8NI35; [2]): below the threshold
pKd (MPDZ_12, O75970; [2]): below the threshold
Binder: TEAKLTETNA [MYO18A, Q92614]

pKd (LNX1_2, Q8TBB1; [1]): below the threshold
pKd (FRMPD2_3, Q68DX3; [1]): below the threshold
pKd (TJP3_3, O95049; [1]): below the threshold
pKd (TJP1_2, Q07157; [1]): below the threshold
pKd (GRIP2_4, Q9C0E4; [1]): below the threshold
pKd (DLG1_2, Q12959; [1]): 4.2
pKd (NHERF2_2, Q15599; [1]): 5.17
pKd (GOPC, Q9HD26; [1]): 4.01
pKd (GRIP2_6, Q9C0E4; [1]): below the threshold
pKd (APBA3_1, O96018; [1]): below the threshold
pKd (NOS1, P29475; [1]): 4.05
pKd (MAGI2_6, Q86UL8; [1]): below the threshold
pKd (PARD3_3, Q8TEW0; [1]): 4.04
pKd (LIN7A, O14910; [1]): below the threshold
pKd (DLG3_3, Q92796; [1]): below the threshold
pKd (Inadl_1, Q8NI35; [1]): below the threshold
pKd (PDZRN4_1, Q6ZMN7; [1]): 4.97
pKd (PDZD2_2, O15018; [1]): below the threshold
pKd (DFNB31_3, Q9P202; [1]): below the threshold
pKd (MAST1, Q9Y2H9; [1]): 5.14
pKd (DLG1_3, Q12959; [1]): below the threshold
pKd (LAP2, Q96RT1; [1]): 3.75
pKd (IL16_1, Q14005; [1]): below the threshold
pKd (GORASP2, Q9H8Y8; [1]): below the threshold
pKd (DLG1_1, Q12959; [1]): below the threshold
pKd (SNTG1, Q9NSN8; [1]): 3.73
pKd (GRIP1_7, Q9Y3R0; [1]): below the threshold
pKd (Inadl_4, Q8NI35; [1]): below the threshold
pKd (MPDZ_12, O75970; [1]): below the threshold
Binder: GQDSREETQL [KCNT2, Q6UVM3]

From publication PMC9482650, “Quantitative fragmentomics allow affinity mapping of interactomes” (Nature Communications, 2022)
